The target in this assay is T1, IL-6 receptor (Homo sapiens, UniProt P08887).
T1 chain: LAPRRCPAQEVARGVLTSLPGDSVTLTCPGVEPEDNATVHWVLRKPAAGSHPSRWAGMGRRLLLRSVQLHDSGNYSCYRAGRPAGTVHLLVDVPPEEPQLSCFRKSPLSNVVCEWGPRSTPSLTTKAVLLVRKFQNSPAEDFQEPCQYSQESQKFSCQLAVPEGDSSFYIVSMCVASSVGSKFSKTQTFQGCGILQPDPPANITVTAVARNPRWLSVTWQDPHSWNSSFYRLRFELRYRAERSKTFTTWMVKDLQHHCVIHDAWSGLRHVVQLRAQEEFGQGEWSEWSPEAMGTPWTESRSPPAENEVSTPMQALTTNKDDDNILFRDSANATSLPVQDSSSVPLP
In words: SPR. Background: SPR reads the build-up and loss of mass on a sensor chip optically.

Results on one molecule are retold here after article PMC12440737 (2025).

As usually defined, the Kd is the equilibrium constant for the complex coming apart.

B1: Tocilizumab (antibody, V domains shown)
VH: QVQLQESGPGLVRPSQTLSLTCTVSGYSITSDHAWSWVRQPPGRGLEWIGYISYSGITTYNPSLKSRVTMLRDTSKNQFSLRLSSVTAADTAVYYCARSLARTTAMDYWGQGSLVTVSS
VL: DIQMTQSPSSLSASVGDRVTITCRASQDISSYLNWYQQKPGKAPKLLIYYTSRLHSGVPSRFSGSGSGTDFTFTISSLQPEDIATYYCQQGNTLPYTFGQGTKVEIK
As for B1, the Kd was determined as 9.9 nM.
